Experimental findings from patent US20200339699A1 (Innovent, published 2020) are described below.

Sequences and labels used below:
B6: human BCMA on NCI-H929 cells (receptor)
chain: MLQMAGQCSQNEYFDSLLHACIPCQLRCSSNTPPLTCQRYCNASVTNSVKGTNAILWTCLGLSLIISLAVFVLMFLLRKINSEPLKDEFKNTGSGLLGMANIDLEKSRTGDEIILPRGLEYTVEECTCEDCIKSKPKVDSDHCFPLPAMEEGATILVTTKTNDYCKSLPAALSATEIEKSISAR
notes: BCMA-positive human multiple myeloma cell line NCI-H929 (ATCC CRL-9068); also called B-cell maturation antigen; CD269

In assay [1] the target is B6. The assay can be described thus: flow cytometry on NCI-H929 cells, yeast-expressed antibody. The protocol: The method is specifically as follows: [0293] 1. A human NCI-H929 (ATCC, CRL-9068) cell suspension was taken, adjusted to a cell density of 2×10⁶ cells/mL, and added to a 96-well microplate at 100 μL/well. The cell suspension was centrifuged at 400 G for 5 min and the supernatant was removed. [0294] 2. The anti-BCMA antibody solution was serially diluted in 3-fold gradient in PBS containing 0.1% bovine serum albumin (BSA) from a concentration of 400 nM for a total of 12 points, 100 μL of the dilution of the antibody was added to each well, and then the plate was incubated at 4° C. for 30 min [0295] 3. The mixture was centrifuged at 400 G for 5 min, and washed twice with PBS, and […] of a dilution of a secondary antibody (a phycoerythrin (PE) labeled goat anti-human IgG antibody, SouthernBiotech, final concentration: 5 μg/mL) in PBS (1% BSA) was added to each well. The plate was incubated at 4° C. for 30 min (in the dark). [0296] 4. Then the resulting solution was centrifuged at 400 G for 5min, and washed twice with PBS, and the cells were resuspended with 100 μL of PBS per well. Flow cytometry was performed on an Accuri C6 system (BD Bioscience) to detect PE positive signals, and MFI was calculated based on C6 software. The EC50 values were calculated using GraphPad software.

In assay [2] the target is ADI-34848 scFv-hFc. Briefly: flow cytometry on NCI-H929 cells, scFv-hFc.
Assay [3] has as its target ADI-34848 scFv-hFc. The assay can be described thus: BLI (ForteBio Octet Red96), scFv-hFc on AHC sensors, human BCMA-His in solution. Here is the method: The kinetic constants of the antibody molecules were determined based on the biofilm layer interferometry (BLI) of a fiber optic biosensor.
The Fortebio instrument model used in the experiment was Octet Red96, and a ForteBio affinity assay was performed according to the existing method (Estep, P et al., High throughput solution Based measurement of antibody-antigen affinity and epitope binning MAbs, 2013.5 (2): p. 270-8). The assay is specifically as follows: [0317] 1. Half an hour before the experiment, an appropriate number of AHC sensors were taken according to the number of samples and soaked in the SD buffer (50 mL PBS+0.1% BSA +0.05% Tween-20). [0318] 2. SD buffer, scFv-hFc antibodies and human BCMA-His antigens (ACRO BIOSYSTEMS, BCA-H522Y), each of 100 μL were added to a 96-well half-area black polystyrene microplate respectively. [0319] 3. The plates were arranged according to the positions of the samples, the positions of the sensors were selected, and the operation procedures were set as: Baseline, Loading ˜1 nm, Baseline, Association, and Dissociation, each running for a time depending on the binding and dissociation rates of the sample, at a rotation speed of 1,000 rpm and a temperature of 30° C. [0320] 4.

B1: ADI-34832 (antibody, V domains shown)
VH: QITLKESGPTLVKPTQTLTLTCTFSGFSLSTSGVGVGWIRQPPGKALEWLALIYWNDEKRYSPSLKSRLTITKDTSKNQVVLTMTNMDPVDTAVYYCARDPGEQLQVFDYWGQGTLVTVSS
VL: DIQMTQSPSSVSASVGDRVTITCRASQGISSWLAWYQQKPGKAPKLLIYAASSLQSGVPSRFSGSGSGTDFTLTISSLQPEDFATYYCQQTLSLPITFGGGTKVEIK
notes: Yeast-expressed fully human antibody purified on protein A
B1: the EC50 in assay [1] was determined as 34.1 nM.

B2: ADI-34859 (antibody, V domains shown)
VH: QLQLQESGPGLVKPSETLSLTCTVSGGSISSSSYYWGWIRQPPGKGLEWIGSISYSGSTYYNPSLKSRVTISVDTSKNQFSLKLSSVTAADTAVYYCARDRGDTILDVWGQGTMVTVSS
VL: DIQMTQSPSSLSASVGDRVTITCRASQSINSYLNWYQQKPGKAPKLLIYAASSLQSGVPSRFSGSGSGTDFTLTISSLQPEDFATYYCQQKASAPITFGGGTKVEIK
notes: as for B1
In assay [1], B2 came in with an EC50 of 85.8 nM.

B3: ADI-34860 (antibody, V domains shown)
VH: QLQLQESGPGLVKPSETLSLTCTVSGGSISSSSYYWGWIRQPPGKGLEWIGSISYSGSTYYNPSLKSRVTISVDTSKNQFSLKLSSVTAADTAVYYCARDRGDTILDVWGQGTMVTVSS
VL: DIQMTQSPSSLSASVGDRVTITCRASQSISSYLNWYQQKPGKAPKLLIYAASSLQSGVPSRFSGSGSGTDFTLTISSLQPEDFATYYCQQKYDLLTFGGGTKVEIK
notes: as for B1
B3 yielded an EC50 in assay [1] of 144 nM.

B4: ADI-34861 (antibody, V domains shown)
VH: QLQLQESGPGLVKPSETLSLTCTVSGGSISSSSYYWGWIRQPPGKGLEWIGSISYSGSTYYNPSLKSRVTISVDTSKNQFSLKLSSVTAADTAVYYCARDRGDTILDVWGQGTMVTVSS
VL: DIQMTQSPSSLSASVGDRVTITCRASQSISRYLNWYQQKPGKAPKLLIYAASSLQSGVPSRFSGSGSGTDFTLTISSLQPEDFATYYCQQKYFDITFGGGTKVEIK
notes: as for B1
B4: the EC50 in assay [1] was found to be 65.1 nM.

B5: ADI-34846 (antibody, V domains shown)
VH: QVQLVQSGAEVKKPGSSVKVSCKASGGTFSNYAISWVRQAPGQGLEWMGGIIPIFGTANYAQKFQGRVTITADESTSTAYMELSSLKSEDTAVYYCARGSGYYSSWLFDIWGQGTMVTVSS
VL: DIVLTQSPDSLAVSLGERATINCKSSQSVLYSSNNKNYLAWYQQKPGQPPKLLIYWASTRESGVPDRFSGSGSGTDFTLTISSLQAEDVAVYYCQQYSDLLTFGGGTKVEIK
notes: as for B1
In turn, B5 returned an EC50 in assay [1] of 136 nM. This EC50 is about 2.1-fold higher than that of the molecule before.

B6: the binding result with ADI-34848 scFv-hFc [2] was “binds”.

B7: human BCMA-His (receptor)
chain: MLQMAGQCSQNEYFDSLLHACIPCQLRCSSNTPPLTCQRYCNASVTNSVKGTNA
notes: Bought antigen (ACRO BIOSYSTEMS, BCA-H522Y); probably only the extracellular domain stood in the assay; also called hBCMA-His; monovalent human BCMA; not shown: His tag
Consider B7, for which, in the assay with ADI-34848 scFv-hFc [3], binding was characterised by a dissociation constant (Kd) of 71.1 nM, the koff worked out at 0.0145 s⁻¹ and the on-rate (kon) came to 204000 M⁻¹ s⁻¹.

B8: ADI-34854 (antibody, V domains shown)
VH: QVQLVESGGGVVQPGRSLRLSCAASGFTFSSYGMHWVRQAPGKGLEWVAVISYEGSNKYYADSVKGRFTISRDNSKNTLYLQMNSLRAEDTAVYYCARDTSSYGDASYGMDVWGQGTTVTVSS
VL: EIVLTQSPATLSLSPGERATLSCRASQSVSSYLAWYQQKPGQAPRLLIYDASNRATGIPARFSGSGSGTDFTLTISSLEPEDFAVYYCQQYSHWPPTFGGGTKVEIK
notes: as for B1
In turn, B8 yielded an EC50 in assay [1] of 83.2 nM.

B9: ADI-34857 (antibody, V domains shown)
VH: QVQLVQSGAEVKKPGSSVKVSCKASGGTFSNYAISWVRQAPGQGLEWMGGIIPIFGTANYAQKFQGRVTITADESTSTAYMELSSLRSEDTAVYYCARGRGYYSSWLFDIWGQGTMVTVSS
VL: DIQMTQSPSSLSASVGDRVTITCQASQDITNYLNWYQQKPGKAPKLLIYDASNLETGVPSRFSGSGSGTDFTFTISSLQPEDIATYYCQQAFDLITFGGGTKVEIK
notes: as for B1
Regarding B9, the EC50 in assay [1] was 25.2 nM.

B10: ADI-34848 (antibody, V domains shown)
VH: EVQLLESGGGLVQPGGSLRLSCAASGFTFDDYAMHWVRQAPGKGLEWVSGISWSSGSIGYADSVKGRFTISRDNAKNSLYLQMNSLRAEDTAVYYCAKDSPRRDSFGSIAFDIWGQGTMVTVSS
VL: not shown
notes: as for B1
As for B10, the midpoint of the response in assay [1], the EC50, lay at 24.8 nM.

B11: ADI-34850 (antibody, V domains shown)
VH: EVQLVESGGGLVQPGRSLRLSCAASGFTFDDYAMHWVRQAPGKGLEWVSGISWSSGSIGYADSVKGRFTISRDNAKNSLYLQMNSLRAEDTAVYYCAKDSPRRDSFGSIAFDIWGQGTMVTVSS
VL: EIVMTQSPATLSVSPGERATLSCRASQSVGSNLAWYQQKPGQAPRLLIYGASTRATGIPARFSGSGSGTEFTLTISSLQSEDFAVYYCQQSVNLPITFGGGTKVEIK
notes: as for B1
B11 yielded an EC50 in assay [1] of 12.1 nM.

B12: ADI-34849 (antibody, V domains shown)
VH: EVQLVESGGGLVQPGRSLRLSCAASGFTFDDYAMHWVRQAPGKGLEWVSGISWSSGSIGYADSVKGRFTISRDNAKNSLYLQMNSLRAEDTAVYYCAKDSPRRDSFGSIAFDIWGQGTMVTVSS
VL: EIVLTQSPATLSLSPGERATLSCRASQSVSSYLAWYQQKPGQAPRLLIYDASKRATGIPARFSGSGSGTDFTLTISSLEPEDFAVYYCQQASALPLTFGGGTKVEIK
notes: as for B1
Regarding B12, a half-maximal response in assay [1] (EC50) required 9.11 nM.
